Drawing on patent US20230107034A1, this text covers koff for two substances.

One may read the koff as the first-order rate constant of dissociation.

Where two headings read alike, the source gives them in different places.

What all share (assay): SPR
(In general: In SPR one partner is held on a chip, and binding of the other changes the refractive index at the surface.)

The target in experiment [1] is Ab 1-42 (UniProt P05067).
The target in experiment [2] is Ab 1-42 (UniProt P05067). The source holds these as a separate data set.
A further experiment concerns the target monomer (UniProt P05067).
The target of the next experiment is PFs (AB 1-42 proto) (UniProt P05067).
Sequence of PFs (AB 1-42 proto) (P05067 672-713): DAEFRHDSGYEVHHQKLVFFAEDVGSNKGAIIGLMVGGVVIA

Sequence of Ab 1-42 (P05067 672-713): as above
Sequence of monomer (P05067 672-713): as above

As to BAPI, the koff with Ab 1-42 [1] turned out to be 0.000505 s⁻¹; with Ab 1-42 [2], 0.000426 s⁻¹.
In the case of Aducanumab, the koff was 0.718 s⁻¹ with monomer and 0.000144 s⁻¹ with PFs (AB 1-42 proto).
